In the nanobody polyreactivity screen of Harvey et al. (2022):

assay: yeast display, Sf9 membrane polyspecificity reagent, FACS + sequencing; frameworks hold sequencing errors
Summary of the method: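 In a synthetic yeast display library (Saccharomyces cerevisiae BJ5465), nanobody expression was induced with galactose for 36–48 hours. FACS gates were set low and high (top ~1%) using anti-HA fluorescence for expression and streptavidin fluorescence for binding of the Sf9 membrane reagent. Each polyreactivity label is drawn from the gate of origin.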

Sequence | polyreactivity (PSR sort gate)
QVQLVESGGGLVQAGGSLRLSCAASGSTFSNYAMGWYRQAPGKERELVAVITRGASTYYADSVKGRFTISRDNAKNTVYLPMNSLKPEDTAVFYCNVPIRGQLVHTYPYDYWGQGTQVTVSS | high polyreactivity
QVQLVESGGGLVQAGGSLRLSCAASGSTFSPNARGWYRQAPGKERELVAAITYRGANTYYADSVKGRFTISRDNAKNTVYLQMNSLKPEDTAVYYCAAENWIGAYYWGQGTQVTVSS | low polyreactivity
QVQLVESGGGLVQAGGSLRLSCAASGSTFSPNVMGWYRQAPGKERELVAAISSSTGSTNYADSVKGRFTISRDNAKNTVYLQMNSLKPEDTAVYYCAVDPYVHWTTKLYDYWGQGTQVTVSS | low polyreactivity
QVQLVESGGGLVQAGGSLRLSCAASGSTFSPYAMGWYRQAPGKERELVAAISSSGGSTYYADSVKGRFTISRDNAKNTVYLQMNSLKPEDTAVYYCRSFTSAQTLDYWGQGTQVTVSS | high polyreactivity
QVQLVESGGGLVQAGGSLRLSCAASGSTFSPYAMGWYRQAPGKERELVAGITGNGGSTRYADSVKGRFTISRDNAKNTVYLQMNSLKPEDTAVYYCAARWTRQRYRTSYYSWGQGTQVTVSS | high polyreactivity
QVQLVESGGGLVQAGGSLRLSCAASGSTFSQNAMGWYRQAPGKERELVAVISSSGGRTNYADSVKGRFTISRDNAKNTVYLQMNSLKPEDTSVYYCAKRLRVLYYYWGQGTQVTVSS | high polyreactivity
QVQLVESGGGLVQAGGSLRLSCAASGSTFSRNAMGWYRPAPGKERELVAAISSSGGRTYYADSVKGRFTISRDNAKNTVYLQMNSLKPQDTAVYYCAADWWRVEMDYWGQGTQVTVSS | low polyreactivity
QVQLVESGGGLVQAGGSLRLSCAASGSTFSRNAMGWYRQAPGKERELVATISRSGRTNYADSVKGRFTISRDNAKNTVYLQMNSLKPEDTAVYYCNAGYRRSYEYWGQGTQVTVSS | low polyreactivity
QVQLVESGGGLVQAGGSLRLSCAASGSTFSRNVMGWYRQAPGKERELVAAISRGGSTNYADSVKGRFTISRENAKNTVYLQMNSLKPEDTAVYYCNAPRLGKFYYWGQGTQVTVSS | low polyreactivity
QVQLVESGGGLVQAGGSLRLSCAASGSTFSRYAMGSYRQAPGKERELVAAITGTGGRTYYADSVKGRFTISRDNAKNTVYLQMNSLKPEDTAVYYCAAQRWTVKYNYWGQGTQVTVSS | high polyreactivity
QVQLVESGGGLVQAGGSLRLSCAASGSTFSRYAMGWYRHAPGKERELVAAISSSGGGTYYADSVKGRFTISRDTAKNTVFFQMNSLKPEDTAVYYCAKSYRRRQGYYYWGQGTQVTVSS | high polyreactivity
QVQLVESGGGLVQAGGSLRLSCAASGSTFSRYAMGWYRQAPGKERELVAAISQGGGRTYYADSVKGRFTISRDNAKNTVYLQMNSLKPEDTAVYYCAAREYYRKPYDHWGQGTQVTVSS | high polyreactivity
QVQLVESGGGLVQAGGSLRLSCAASGSTFSRYAMGWYRQAPGKERELVAAISSSGGGTYYADSVKGRFTISRDNAKNTVYLQMNSLKPEDTAVYYCAAKRVHGATGYWGQGTQVTVSS | high polyreactivity
QVQLVESGGGLVQAGGSLRLSCAASGSTFSRYAMRWYRQAPGKEMELVAAISSRGGSTYYADSVKGRFTISRDNAMNTVYLQMNSLKPEDTAFYYCAVKSYRLTGRGYWGQGTQVTVSS | high polyreactivity
QVQLVESGGGLVQAGGSLRLSCAASGSTFSRYTMGWSRQAPGKERELVAAISYRGGSTYYADSVKGRFTISRDNAKNTVYLQMNSLKPEDTAVYYCAADAEGSASKYDYWGQGTQVTVSS | low polyreactivity
QVQLVESGGGLVQAGGSLRLSCAASGSTFSRYVMGWYRQAPGKERELVAAISSTGGSTYYADSVKGRFTISRDNAKNTVYLQMNSLKPEDTAVYYCNTTYSYGVAAARYYYWGQGTQVTVSS | high polyreactivity

Sequence | polyreactivity (PSR sort gate)
QVQLVESGGGLVQAGGSLRLSCAASGSTFSRYVMVWYRQAPGKERELVAAISRSGSTYYADSVKGRFTISRDNAMNTVYLQMNSLKPEDTAVYYFDATGSKSAGYGYWGQGTQVTVSS | high polyreactivity
QVQLVESGGGLVQAGGSLRLSCAASGSTFSSNAMGWYRQAPGKEREFVAGISRSGGSTYYADSVKGRFTISRDNAKNTVYLQMNSLKPEDTAVYYCAARGGPGFKFGYWGQGTQVTVSS | high polyreactivity
QVQLVESGGGLVQAGGSLRLSCAASGSTFSSNAMGWYRQAPGKERELVAAINRTGNTYYADSVKGRFTISRDNAKNTVYLQMNSLKPEDTAVYYCNTDLNLYRGGGYWGQGTQVTVSS | low polyreactivity
QVQLVESGGGLVQAGGSLRLSCAASGSTFSSYAMGWYRQAPGKEREFVAAISRSGVRTYYADSVKGRFTISRDNAKNSVYLQMNSLNPEDTVVYYCAAVSSLSYSFPYDYWGQGTQVTVSS | high polyreactivity
QVQLVESGGGLVQAGGSLRLSCAASGSTFSSYAMGWYRQAPGKERELVAAITSSGGSTYYADSVKGRFTISRDNAKNTVYLQMNSLKPEDTAVYYCAAADVIFWLYYYWGQGTQVTVSS | low polyreactivity
QVQLVESGGGLVQAGGSLRLSCAASGSTFSSYAMGWYRQAPGKERELVARITSGGSTYYADSVKGRFTISRDNAKNTVYSQMNSLKPEDTAVYYCAARGYYYRSRVSQFKYDYWGQGTQVTVSS | high polyreactivity
QVQLVESGGGLVQAGGSLRLSCAASGSTFSTNAMGWYRQAPGKERDLVAAISRSGGSTYYADTVKRRFTISRDIAKITVYLQMNSLKPEVSAVYYCARYSYRGTNVSYDYWGQGTQVTVSS | high polyreactivity
QVQLVESGGGLVQAGGSLRLSCAASGSTFSTNAMGWYRQAPGKERELVAAISYSGGSTYYADSVKGRFTISRDNAKNTVYLQMISLKPEDTAVYYCAADGYYYNSGGRYYEFYYWGQGTQVTVSS | low polyreactivity
QVQLVESGGGLVQAGGSLRLSCAASGSTFSTYAMGSYRQAPGKERELVATISKRGGSTYYADSVKGRFTISRDNAKNTVYLQMNSLKPEDTAVYYCATPRYRYYTIYDYGYWGQGTQVTVSS | high polyreactivity
QVQLVESGGGLVQAGGSLRLSCAASGSTFSTYAMGWYRQAPGKERELVAAIRSGGSTYYADSVKGRFTISRDNAKNTVYLQMNSLKPEDTAVYYCAAKPRNYSYRYYYWGQGTQVTVSS | high polyreactivity
QVQLVESGGGLVQAGGSLRLSCAASGSTFSVNAMGWYRQAPGKEREMVAAISSTGSTKYADSVKGRFTISRDNAKNTVYLQMNSLKPEDTAVYCAASNADYEYDPFSVWYFSPYDYWGQGTQVTVSS | low polyreactivity
QVQLVESGGGLVQAGGSLRLSCAASGSTFSVYAMGWYRQAPGKEMELVATITWNGGRTYYADSVKGRFTISRDNAKNTVYLQMNSLKPEDTAVYYCASPWLKPGNGIYGGYGYWGQGTQVTVSS | high polyreactivity
QVQLVESGGGLVQAGGSLRLSCAASGSTFSVYAMGWYRQAPGKERELVADITRGGSTYADSVKGRFTISRDNAKNTVYLQMNSLKPEDTAVYYCAREEVTPYPLYWSTREYDYWGQGTQVTVSS | low polyreactivity
QVQLVESGGGLVQAGGSLRLSCAASGSTFSVYAMGWYRQAPGKERELVATIRGRGGSTSYADSVKGRFTISRDNAKNTVYLQMNSLKPEDTAVYYCAARVVRDWASKRIILALSNYDYWGQGTQVTVSS | high polyreactivity
QVQLVESGGGLVQAGGSLRLSCAASGSTFSWYAMGWYRQAPGKERELVAAISSGGSTNYADSVKGRFTISRDNAKNTVYLQMNSMKPEDTAVYYCAAVWSRFLISYSTGWWFEYWGQGTKVTVSS | low polyreactivity
QVQLVESGGGLVQAGGSLRLSCAASGSTFSWYAMGWYRQAPGKERELVAAITRSGGRTYYADSVKGRFTISRDNAKNTVYLQMNSLKPEDTAVYYCAAVQYKSPHNYWGQGTQVTVSS | high polyreactivity
